Reference: patent US20250011363A1, “OPTIMIZED SHORTENED PEPTIDE THAT BINDS TO ACETYLCHOLINE RECEPTOR, AND USE THEREOF” (SKINMED CO., LTD., priority 2021, published 2025)

The binders below were run against acetylcholine receptor (assay: SPR, AchR immobilised, peptide 10 uM).

Row | Binder | Binding affinity (RU)
1 | KREAMK [6mer-1-1085] | 33
2 | RRCHVK [6mer-1-1095] | 27
3 | RKPEPR [6mer-1-1096] | 23
4 | RRKEAK [6mer-1-1120] | 22
5 | KKDDGK [6mer-1-1091] | 32
6 | RRHCDK [6mer-1-1126] | 41
7 | RRASPR [6mer-1-1111] | 38
8 | RKKEPK [6mer-1-1076] | 43
9 | RRCTMK [6mer-1-1113] | 28
10 | RRTMGR [6mer-1-1122] | 33
11 | KRNSAR [6mer-1-1104] | 28
12 | KKPSVK [6mer-1-1075] | 38
13 | RKATFR [6mer-1-1130] | 31
14 | RRAHNK [6mer-1-1108] | 43
15 | KRHPFR [6mer-1-1116] | 35
16 | KRMSHK [6mer-1-1100] | 43
17 | KKDEIR [6mer-1-1124] | 21
18 | RKDHAR [6mer-1-1129] | 39
19 | RRKSDR [6mer-1-1093] | 37
20 | KKTCDR [6mer-1-1082] | 37
21 | KRPSNK [6mer-1-1081] | 23
22 | RRDNVK [6mer-1-1123] | 41
23 | KKCCPK [6mer-1-1084] | 25
24 | RKEANK [6mer-1-1086] | 22
25 | KKPTDR [6mer-1-1125] | 26
26 | RRETHK [6mer-1-1088] | 38
27 | KRCPPR [6mer-1-1107] | 36

Next, values leading:

Row | Binding affinity (RU) | Binder
28 | 36 | KKNAVR [6mer-1-1083]
29 | 40 | KKEWFR [6mer-1-1117]
30 | 31 | RKFTKK [6mer-1-1089]
31 | 40 | RRCTAR [6mer-1-1105]
32 | 24 | RRKTDR [6mer-1-1099]
33 | 38 | KKFNFK [6mer-1-1114]
34 | 24 | RRKWGR [6mer-1-1077]
35 | 33 | KKDTIK [6mer-1-1118]
36 | 27 | KKPWKR [6mer-1-1087]
37 | 41 | KRCCVR [6mer-1-1109]
38 | 39 | KKKKPK [6mer-1-1128]
39 | 34 | RKMMMK [6mer-1-1127]
40 | 39 | KRFMNK [6mer-1-1106]
41 | 25 | RKHPVK [6mer-1-1079]
42 | 24 | KRTCGR [6mer-1-1074]
43 | 39 | RKNCNK [6mer-1-1097]

Row | Binding affinity (RU) | Binder
44 | 35 | KRFTKK [6mer-1-1102]
45 | 28 | KKTWWR [6mer-1-1121]
46 | 27 | KKTMWR [6mer-1-1090]
47 | 27 | KKDPWK [6mer-1-1112]
48 | 37 | RRECDK [6mer-1-1101]
49 | 24 | RKFTER [6mer-1-1110]
50 | 42 | RKKDMR [6mer-1-1098]
51 | 43 | RKCAFR [6mer-1-1115]
52 | 31 | KRIWVR [6mer-1-1119]
53 | 25 | RRPDIK [6mer-1-1078]
54 | 27 | KREDNK [6mer-1-1103]
55 | 43 | RKYHDK [6mer-1-1092]
56 | 42 | RKDNIK [6mer-1-1131]
57 | 42 | RRMAIK [6mer-1-1094]
58 | 38 | KKHNMR [6mer-1-1080]

What follows are binders tested against acetylcholine receptor (assay: SPR, peptide at 10 µM on acetylcholine receptor).

Row | Binder | Binding affinity (RU)
59 | RLVTR [5mer-53] | 50
60 | KQVYR [5mer-349] | 50
61 | KSYYK [5mer-350] | 59
62 | KRFCK [5mer-56] | 59
63 | KSQLK [5mer-353] | 59
64 | RGFRK [5mer-357] | 54
65 | RSLQR [5mer-51] | 70
66 | RSQTR [5mer-354] | 64
67 | KLLCR [5mer-50] | 63
68 | RRFSR [5mer-55] | 58

The remaining lines, values ahead:

Row | Binding affinity (RU) | Binder
69 | 76 | RLVRK [5mer-352]
70 | 62 | KWRTR [5mer-49]
71 | 87 | KLLYR [5mer-355]
72 | 50 | RQQYK [5mer-52]
73 | 75 | KWVSK [5mer-58]
74 | 73 | KQLYR [5mer-57]
75 | 75 | KSFSK [5mer-351]
76 | 65 | KQVLR [5mer-356]
77 | 50 | KVRSK [5mer-358]
78 | 66 | KWLQR [5mer-54]
